Reference: CN116615457A (ICONOSCO S A, dated 2023)

Key:
[1] = molecular target: T1, 重组人IL-1RAP-ECD(S21-E359)-avi-his蛋白 (human, UniProt Q9NPH3 21-359, biotinylated in the BLI binning assay); test: SPR; IgG1 LALA captured on anti-human IgG Fc chip, human IL-1RAP-avi-his as analyte
T1 construct: also called 人IL-1RAP-ECD-Avi-His; 重组人IL-1RAP-avi-his蛋白
T1 sequence: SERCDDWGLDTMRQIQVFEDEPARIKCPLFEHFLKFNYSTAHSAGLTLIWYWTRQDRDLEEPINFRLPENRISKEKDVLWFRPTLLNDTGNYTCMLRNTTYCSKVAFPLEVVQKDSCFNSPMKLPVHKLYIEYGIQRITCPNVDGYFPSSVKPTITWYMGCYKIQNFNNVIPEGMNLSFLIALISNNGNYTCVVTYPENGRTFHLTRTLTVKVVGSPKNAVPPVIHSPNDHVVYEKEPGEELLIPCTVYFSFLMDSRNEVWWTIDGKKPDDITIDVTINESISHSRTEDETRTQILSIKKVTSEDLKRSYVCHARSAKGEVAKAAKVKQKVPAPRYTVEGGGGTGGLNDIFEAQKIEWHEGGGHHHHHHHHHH

[2] = molecular target: T2, 重组食蟹猴IL-1RAP-ECD(S21-E359)-avi-his蛋白 (cynomolgus monkey, UniProt P59822 21-359 (rhesus entry), biotinylated in the Fab SPR assay); test: SPR; IgG1 LALA captured on anti-human IgG Fc chip, cynomolgus IL-1RAP-avi-his as analyte
T2 construct: also called 食蟹猴IL-1RAP-ECD-Avi-His; 重组食蟹猴IL-1RAP-avi-his蛋白
T2 sequence: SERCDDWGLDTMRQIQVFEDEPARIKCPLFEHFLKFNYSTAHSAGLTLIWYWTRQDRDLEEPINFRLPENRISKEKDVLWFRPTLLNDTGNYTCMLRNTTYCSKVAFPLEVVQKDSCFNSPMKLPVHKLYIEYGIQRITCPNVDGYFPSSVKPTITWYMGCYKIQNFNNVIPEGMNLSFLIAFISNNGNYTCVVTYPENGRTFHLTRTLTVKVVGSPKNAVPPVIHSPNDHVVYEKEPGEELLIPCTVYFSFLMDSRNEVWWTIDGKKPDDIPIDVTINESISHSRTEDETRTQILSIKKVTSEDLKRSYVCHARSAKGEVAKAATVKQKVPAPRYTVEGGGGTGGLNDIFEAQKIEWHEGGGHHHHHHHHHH

[3] = molecular target: T3, 膜结合的小鼠IL-1RAP (NIH-3T3细胞) (mouse, UniProt Q61730 21-570); test: flow cytometry (Fig. 11 legend)
T3 construct: whole, on cells; also called mouse IL-1RAP on NIH-3T3 cells
T3 sequence (looked up): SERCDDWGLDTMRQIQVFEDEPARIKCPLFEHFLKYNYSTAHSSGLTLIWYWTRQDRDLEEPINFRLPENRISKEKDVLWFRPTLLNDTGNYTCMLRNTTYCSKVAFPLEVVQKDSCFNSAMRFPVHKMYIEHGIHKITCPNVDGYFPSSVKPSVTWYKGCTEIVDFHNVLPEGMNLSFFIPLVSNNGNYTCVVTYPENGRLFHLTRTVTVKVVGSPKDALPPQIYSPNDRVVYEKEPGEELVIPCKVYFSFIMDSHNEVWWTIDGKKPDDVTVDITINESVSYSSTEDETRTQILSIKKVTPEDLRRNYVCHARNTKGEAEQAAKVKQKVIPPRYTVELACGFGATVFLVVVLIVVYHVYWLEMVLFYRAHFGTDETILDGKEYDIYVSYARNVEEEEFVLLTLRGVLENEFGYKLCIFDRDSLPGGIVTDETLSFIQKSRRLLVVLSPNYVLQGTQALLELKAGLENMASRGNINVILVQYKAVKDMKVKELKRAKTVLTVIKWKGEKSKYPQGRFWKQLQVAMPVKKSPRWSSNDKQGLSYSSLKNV

[4] = molecular target: T2, 重组食蟹猴IL-1RAP-ECD(S21-E359)-avi-his蛋白; test: SPR; KD on cynomolgus IL-1RAP against KD on human IL-1RAP

B1: 抗IL-1RAP-C8-RecC IgG1 LALA (antibody, V domains shown)
VH: QVQLVQSGAEVKKPGSSVKVSCKASGSPAEPYAIQWVRQAPGQGLEWMGYIIPSLGGYDYAQKFQGRVTITADESTSTAYMELSSLRSEDTAVYYCARGQTLYDSGRQFDIWGQGTLVTVSS
VL: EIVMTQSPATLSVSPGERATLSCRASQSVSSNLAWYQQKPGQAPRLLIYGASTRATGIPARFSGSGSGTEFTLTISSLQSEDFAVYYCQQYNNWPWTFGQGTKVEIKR
notes: Human IgG1 LALA format; also called 亲本克隆抗IL-1RAP-C8-RecC; anti-IL-1RAP-C8-RecC IgG1 LALA
binding result [1]: binds | binding result [2]: binds

B2: 抗IL-1RAP-C3-A3-mmIgG2a-LALA (antibody, V domains shown)
VH: EVQLLESGGGLVQPGGSLRLSCAASGFIFSHYGMSWVRQAPGKGLEWVSAISYDGEGTLYADSVKGRFTISRDNSKNTLYLQMNSLRAEDTAVYYCARFRYYTAFDYWGQGTLVTVSS
VL: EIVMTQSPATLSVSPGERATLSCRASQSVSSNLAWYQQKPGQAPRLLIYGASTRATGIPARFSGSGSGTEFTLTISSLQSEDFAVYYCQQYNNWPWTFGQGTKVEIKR
notes: Mouse IgG2a LALA; also called 抗IL-1RAP-C3-A3小鼠IgG2a LALA; 抗IL-1RAP-C3-A3克隆
binding result [3]: binds

B3: 抗IL-1RAP-UCP02-C3 Fab (Fab, V domains shown)
VH: EVQLLESGGGLVQPGGSLRLSCAASGFTFRDYAMGWVRQAPGKGLEWVSAISYDGEGTLYADSVKGRFTISRDNSKNTLYLQMNSLRAEDTAVYYCARFRYYTAFDYWGQGTLVTVSS
VL: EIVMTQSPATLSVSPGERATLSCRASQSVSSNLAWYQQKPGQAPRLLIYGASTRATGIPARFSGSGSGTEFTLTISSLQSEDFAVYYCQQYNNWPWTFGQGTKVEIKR
notes: also called 抗IL-1RAP-C3; 抗IL-1RAP-C3 Fab
fold lower affinity than for human IL-1RAP [4]: ~40 fold
